The results in this text go back to patent US20240270866A1 (Alector, published 2024).

Assay [1] addresses T1, mouse SIRPA overexpressed on CHO cells (mouse, UniProt P97797 32-513).
T1 construct: also called CHO-muSIRPA
T1 sequence: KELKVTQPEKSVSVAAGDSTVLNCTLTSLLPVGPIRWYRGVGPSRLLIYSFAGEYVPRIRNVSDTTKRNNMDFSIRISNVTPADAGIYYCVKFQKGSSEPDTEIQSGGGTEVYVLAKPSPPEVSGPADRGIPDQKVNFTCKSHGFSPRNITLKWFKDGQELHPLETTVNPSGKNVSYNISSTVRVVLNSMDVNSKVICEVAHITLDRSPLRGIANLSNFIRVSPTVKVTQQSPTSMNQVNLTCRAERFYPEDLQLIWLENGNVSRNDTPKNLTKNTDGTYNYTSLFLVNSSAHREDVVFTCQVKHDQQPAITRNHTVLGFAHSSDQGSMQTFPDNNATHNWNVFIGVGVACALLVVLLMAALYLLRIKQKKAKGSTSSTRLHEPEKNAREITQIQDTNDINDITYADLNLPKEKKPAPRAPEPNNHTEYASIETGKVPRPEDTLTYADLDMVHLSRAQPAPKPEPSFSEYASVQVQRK
In words: flow, CHO-muSIRPA.

The target of assay [2] is T2, Mouse SIRPA D1 Fc (mouse, UniProt P97797 32-150, limits assumed).
T2 sequence: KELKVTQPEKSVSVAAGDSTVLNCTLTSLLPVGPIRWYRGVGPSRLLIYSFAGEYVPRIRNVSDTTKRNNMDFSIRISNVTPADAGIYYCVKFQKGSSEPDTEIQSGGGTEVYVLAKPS
In words: ForteBio IgG avid.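 Also: antibody IgG captured on AHQ biosensors, then 100 nM Fc-fused SIRP antigen applied for 3 min, followed by 3 min buffer dissociation, kinetics fitted to a 1:1 model.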 A general note: In BLI a coated tip is dipped into the sample, and binding shifts an interference pattern.
Experimental: Briefly, ForteBio affinity measurements were performed by loading IgGs on-line onto AHQ sensors. Sensors were equilibrated off-line in assay buffer for 30 min and then monitored on-line for 60 seconds for baseline establishment. For avid binding measurement, sensors with loaded IgGs were exposed to 100 nM antigen (human SIRPA or SIRPβ1 Fc fusion) for 3 min, afterwards they were transferred to assay buffer for 3 min for off-rate measurement. Additional avid binding was determined by loading biotinylated SIRPA monomer on SA sensors and exposure to 100 nM IgG in solution. Monovalent binding measurements were obtained by loading human SIRPA or SIRPβ1 Fc fusion antigens to AHQ sensor and followed by exposure to 100 nM anti-SIRPA antibody Fab. Additional monovalent measurements were made by loading biotinylated human SIRPA or SIRPβ1 monomer to SA sensor followed by exposure to 100 nM Fab in solution. Kinetics data were fit using a 1:1 binding model in the data analysis software provided by ForteBio.

Assay [3] concerns the target T1, mouse SIRPA overexpressed on CHO cells. In words: flow, CHO-muSIRPA. The source holds these as a separate data set.
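For relative MFI in this document: antibody binding measured by flow cytometry: cells stained with 1 ug/ml test antibody for 1 h on ice, detected with PE-labelled secondary antibody.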

B1: SA-9 (antibody, V domains shown)
VH: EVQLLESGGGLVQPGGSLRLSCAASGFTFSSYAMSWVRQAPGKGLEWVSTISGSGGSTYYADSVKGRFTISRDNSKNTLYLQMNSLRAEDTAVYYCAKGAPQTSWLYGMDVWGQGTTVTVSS
VL: DIQMTQSPSSVSASVGDRVTITCRASQGISSWLAWYQQKPGKAPKLLIYAASSLQSGVPSRFSGSGSGTDFTLTISSLQPEDFATYYCQQAYLYPITFGGGTKVENQ
notes: IgG
As to B1, the “relative MFI” value in assay [1] was 0.646 fold over background. For the same molecule, the binding result is given as “no binding (tested: 100 nM)” in assay [2] and “no binding (tested: 1 ug/ml)” in assay [3].

B2: SA-49 (antibody, V domains shown)
VH: EVQLVESGGGLVKPGGSLRLSCAASGFTFSSYSMNWVRQAPGKGLEWVSSISSSSSYIYYADSVKGRFTISRDNAKNSLYLQMNSLRAEDTAVYYCARGAPSMQYSPYYYYGMDVWGQGTTVTVSS
VL: DIQMTQSPSSVSASVGDRVTITCRASQGISSWLAWYQQKPGKAPKLLIYAASSLQSGVPSRFSGSGSGTDFTLTISSLQPEDFATYYCQQVSLYPPTFGGGTKVEIK
notes: IgG
With B2, the “relative MFI” value in assay [1] was 0.53 fold over background. Moreover, the results for the binding result in assay [2] and in assay [3] were “no binding (tested: 100 nM)” and “no binding (tested: 1 ug/ml)”, respectively.

B3: SA-54 (antibody, V domains shown)
VH: QLQLQESGPGLVKPSETLSLTCTVSGGSISSSSYYWGWIRQPPGKGLEWIGSIYYSGSTYYNPSLKSRVTISVDTSKNQFSLKLSSVTAADTAVYYCARGSGIAAADTDGLPMDVWGQGTTVTVSS
VL: DIQMTQSPSSVSASVGDRVTITCRASQGISSWLAWYQQKPGKAPKLLIYAASSLQSGVPSRFSGSGSGTDFTLTISSLQPEDFATYYCQQVYLFPITFGGGTKVEIK
notes: IgG
Regarding B3, the “relative MFI” value in assay [1] amounted to 0.461 fold over background. Also, the binding result in assay [2] was “no binding (tested: 100 nM)”; in assay [3], “no binding (tested: 1 ug/ml)”.

B4: SA-33 (antibody, V domains shown)
VH: QVQLVQSGAEVKKPGSSVKVSCKASGGTFSSYAISWVRQAPGQGLEWMGGIIPIFGTASYAQKFQGRVTITADESTSTAYMELSSLRSEDTAVYYCARDVGMARGDPYGMDVWGQGTTVTVSS
VL: DIQMTQSPSSVSASVGDRVTITCRASQGISSWLAWYQQKPGKAPKLLISAASSLQSGVPSRFSGSGSGTDFTLTISSLQPEDFATYYCLQAYSFPFTFGGGTKVEIK
notes: IgG
For the molecule B4, the “relative MFI” value in assay [1] came out at 0.708 fold over background. In addition, the binding result in assay [2] was “no binding (tested: 100 nM)”; in assay [3], “no binding (tested: 1 ug/ml)”.

B5: SA-46 (antibody, V domains shown)
VH: EVQLLESGGGLVQPGGSLRLSCAASGFTFSTYAMSWVRQAPGKGLEWVSAISGSGGSTYYADSVKGRFTISRDNSKNTLYLQMNSLRAEDTAVYYCARESYDSSLHYYGMDVWGQGTTVTVSS
VL: EIVLTQSPGTLSLSPGERATLSCRASQSVSSSYLAWYQQKPGQAPRLLIYGASSRATGIPDRFSGSGSGTDFTLTISRLEPEDFAVYYCQQHFSLPPTFGGGTKVEIK
notes: IgG
For the molecule B5, the “relative MFI” value in assay [1] came to 0.476 fold over background. Besides, the binding result in assay [2] is recorded as “no binding (tested: 100 nM)”; in assay [3], “no binding (tested: 1 ug/ml)”.

B6: SA-51 (antibody, V domains shown)
VH: QVQLVQSGAEVKKPGSSVKVSCKASGGTFSSYAISWVRQAPGQGLEWMGSIIPIFGTANYAQKFQGRVTITADESTSTAYMELSSLRSEDTAVYYCARGGYAAGTDYYMGVWGKGTTVTVSS
VL: not shown
notes: IgG
Turning to B6, the binding result is listed as “no binding (tested: 100 nM)” in assay [2] and “no binding (tested: 1 ug/ml)” in assay [3].

B7: SA-24 (antibody, V domains shown)
VH: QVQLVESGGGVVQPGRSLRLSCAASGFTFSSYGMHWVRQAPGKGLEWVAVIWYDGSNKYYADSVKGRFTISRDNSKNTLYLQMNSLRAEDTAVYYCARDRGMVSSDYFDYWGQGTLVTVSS
VL: EIVLTQSPATLSLSPGERATLSCRASQSVSSYLAWYQQKPGQAPRLLIYDASNRATGIPARFSGSGSGTDFTLTISSLEPEDFAVYYCQQRLDWPYTFGGGTKVEIK
notes: IgG
With B7, the “relative MFI” value in assay [1] is 0.542 fold over background. In addition, the binding result in assay [2] is recorded as “no binding (tested: 100 nM)”; in assay [3], “no binding (tested: 1 ug/ml)”.
